Results on four molecules are retold here after US20240141072A1 (published 2024).

In assay [1] the target is DH3 anti-DLL3 trispecific protein. As to the kind of experiment: Octet BLI, single 50 nM. The protocol:
(§1) Using conditioned media containing known concentrations of anti-DLL3 trispecific proteins, the binding affinities of the anti-DLL3 trispecific proteins toward human and cynomolgus monkey DLL3 proteins were measured, using a method where the DLL3 proteins were expressed as human IgG1-Fc fusions and the measurements were carried out using an Octet instrument with anti-human Fc tips.
In general terms: BLI is a label-free optical method that tracks binding on a fibre tip over time.

For assay [2], the target named is DH89 anti-DLL3 trispecific protein. Nature of the assay: Octet BLI, DLL3-Fc on anti-human Fc tips, single 50 nM. How it is done: as §1
Assay [3] deals with DH1 anti-DLL3 trispecific protein. Described as above. The protocol:
as §1

In assay [4] the target is DH80 anti-DLL3 trispecific protein. The assay is described as above. How it is done: as §1
The target in assay [5] is DH11 anti-DLL3 trispecific protein. The description is as above. The protocol:
as §1

Assay [6] has as its target DH3 anti-DLL3 trispecific protein. The description is as above. How it is done: as §1
The target in assay [7] is DH83 anti-DLL3 trispecific protein. Described as above. The protocol: as §1
Assay [8] addresses DH69 anti-DLL3 trispecific protein. Described as above. How it is done:
as §1

For assay [9], the target named is DH58 anti-DLL3 trispecific protein. The assay is described as above. How it is done:
as §1

The target in assay [10] is DH10 anti-DLL3 trispecific protein. The description is as above. How it is done: as §1
For assay [11], the target named is DH84 anti-DLL3 trispecific protein. Described as above. How it is done: as §1
Assay [12] addresses DH5 anti-DLL3 trispecific protein. Described as above. The protocol:
as §1

For assay [13], the target named is DH70 anti-DLL3 trispecific protein. Described as above. How it is done: as §1
The target in assay [14] is DH23 anti-DLL3 trispecific protein. The description is as above. How it is done: as §1
Assay [15] concerns the target DH12 anti-DLL3 trispecific protein. Described as above. The protocol:
as §1

Assay [16] addresses DH22 anti-DLL3 trispecific protein. Described as above. The protocol:
as §1

Assay [17] addresses DH51 anti-DLL3 trispecific protein. Described as above. The protocol: as §1
The target in assay [18] is DH38 anti-DLL3 trispecific protein. The description is as above. How it is done: as §1
Assay [19] addresses DH82 anti-DLL3 trispecific protein. The assay is described as above. How it is done: as §1
Assay [20] deals with DH56 anti-DLL3 trispecific protein. Described as above. How it is done:
as §1

The target in assay [21] is DH67 anti-DLL3 trispecific protein. Described as above. How it is done:
as §1

The target of assay [22] is DH2 anti-DLL3 trispecific protein. The assay is described as above. The protocol: as §1
Assay [23] addresses DH54 anti-DLL3 trispecific protein. The description is as above. How it is done: as §1
Assay [24] has as its target DH43 anti-DLL3 trispecific protein. The assay is described as above. The protocol:
as §1

The target of assay [25] is DH27 anti-DLL3 trispecific protein. The description is as above. How it is done:
as §1

Assay [26] has as its target DH61 anti-DLL3 trispecific protein. The assay is described as above. The protocol: as §1
Assay [27] deals with DH29 anti-DLL3 trispecific protein. Described as above. How it is done:
as §1

The target of assay [28] is DH94 anti-DLL3 trispecific protein. Described as above. How it is done: as §1
For assay [29], the target named is DH17 anti-DLL3 trispecific protein. Described as above. How it is done: as §1
For assay [30], the target named is DH15 anti-DLL3 trispecific protein. The description is as above. How it is done: as §1
Assay [31] has as its target DH45 anti-DLL3 trispecific protein. The assay is described as above. The protocol: as §1
Assay [32] concerns the target DH18 anti-DLL3 trispecific protein. The assay is described as above. How it is done: as §1
Assay [33] addresses DH42 anti-DLL3 trispecific protein. Described as above. The protocol:
as §1

The target of assay [34] is DH6 anti-DLL3 trispecific protein. The description is as above. How it is done:
as §1

Assay [35] addresses DH92 anti-DLL3 trispecific protein. The assay is described as above. The protocol: as §1
In assay [36] the target is T1, 52C4 anti-DLL3 trispecific protein (CHO expressed, purified) (biotinylated).
T1 construct: also called 52C04
As to the kind of experiment: Octet BLI, biotinylated trispecific on streptavidin tips.

Assay [37] deals with DH43 anti-DLL3 trispecific protein. As to the kind of experiment: Octet BLI, single 50 nM, four samples of conditioned medium. How it is done: (§2) Using the conditioned medium with known concentrations of the anti-DLL3 trispecific proteins, the binding affinities of the anti-DLL3 trispecific proteins toward human DLL3 protein were measured using a method where biotinylated version of human DLL3 protein were expressed as a human IgG1 fusion protein, and the binding affinity measurement was carried out in an Octet instrument with streptavidin tips.

Assay [38] concerns the target DH6 anti-DLL3 trispecific protein. The description is as above. The protocol: as §2
Assay [39] addresses DH43 anti-DLL3 trispecific protein. Nature of the assay: Octet BLI, 60/20/6.67/2.22 nM. The protocol:
as §2

Assay [40] has as its target DH6 anti-DLL3 trispecific protein. Nature of the assay: Octet BLI, 60/20/6.67/2.22 nM. The protocol: as §2
The target of assay [41] is 41D07 anti-DLL3 trispecific protein. As to the kind of experiment: Octet BLI, streptavidin tips, single 50 nM. How it is done:
(§3) Using the conditioned medium with known concentrations of the anti-DLL3 trispecific proteins, the relative binding affinities of the anti-DLL3 trispecific proteins toward human DLL3 protein were measured using a method where biotinylated version of human DLL3 protein were expressed as a human IgG1 fusion protein, and the binding affinity measurement was carried out in an Octet instrument with streptavidin tips.

Assay [42] addresses 53A05 anti-DLL3 trispecific protein. As to the kind of experiment: Octet BLI, streptavidin tips, single 50 nM. How it is done:
as §3

Sequence of DH6 anti-DLL3 trispecific protein (chain, as listed by the source): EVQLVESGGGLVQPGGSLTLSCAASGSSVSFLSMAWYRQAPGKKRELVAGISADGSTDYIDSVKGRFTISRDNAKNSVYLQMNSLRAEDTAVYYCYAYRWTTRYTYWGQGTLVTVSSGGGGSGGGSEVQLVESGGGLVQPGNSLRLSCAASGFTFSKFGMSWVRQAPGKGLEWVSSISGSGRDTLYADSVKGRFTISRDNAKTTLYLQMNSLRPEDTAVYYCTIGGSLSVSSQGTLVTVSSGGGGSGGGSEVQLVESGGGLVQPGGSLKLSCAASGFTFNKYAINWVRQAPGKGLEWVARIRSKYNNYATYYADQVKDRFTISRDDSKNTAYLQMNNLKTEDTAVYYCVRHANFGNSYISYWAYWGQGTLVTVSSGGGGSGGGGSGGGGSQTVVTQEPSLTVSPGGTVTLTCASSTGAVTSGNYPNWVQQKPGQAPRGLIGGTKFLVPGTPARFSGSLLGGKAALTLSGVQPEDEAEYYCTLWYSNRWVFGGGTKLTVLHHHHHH
Sequence of DH3 anti-DLL3 trispecific protein (chain, as listed by the source): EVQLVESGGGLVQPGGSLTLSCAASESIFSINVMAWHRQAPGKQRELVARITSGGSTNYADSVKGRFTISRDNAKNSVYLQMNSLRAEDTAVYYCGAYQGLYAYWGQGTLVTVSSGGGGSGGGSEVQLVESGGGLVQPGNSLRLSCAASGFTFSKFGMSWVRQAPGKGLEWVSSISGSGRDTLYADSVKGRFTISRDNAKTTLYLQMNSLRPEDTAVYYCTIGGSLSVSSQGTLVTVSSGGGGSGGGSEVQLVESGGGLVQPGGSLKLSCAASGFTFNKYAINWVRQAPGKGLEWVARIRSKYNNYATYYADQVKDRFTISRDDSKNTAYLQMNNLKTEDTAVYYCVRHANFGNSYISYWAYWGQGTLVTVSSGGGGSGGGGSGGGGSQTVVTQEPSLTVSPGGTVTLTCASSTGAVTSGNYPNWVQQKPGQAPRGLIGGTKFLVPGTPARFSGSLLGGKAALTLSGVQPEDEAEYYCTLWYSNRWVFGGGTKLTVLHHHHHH
Sequence of DH43 anti-DLL3 trispecific protein (chain, as listed by the source): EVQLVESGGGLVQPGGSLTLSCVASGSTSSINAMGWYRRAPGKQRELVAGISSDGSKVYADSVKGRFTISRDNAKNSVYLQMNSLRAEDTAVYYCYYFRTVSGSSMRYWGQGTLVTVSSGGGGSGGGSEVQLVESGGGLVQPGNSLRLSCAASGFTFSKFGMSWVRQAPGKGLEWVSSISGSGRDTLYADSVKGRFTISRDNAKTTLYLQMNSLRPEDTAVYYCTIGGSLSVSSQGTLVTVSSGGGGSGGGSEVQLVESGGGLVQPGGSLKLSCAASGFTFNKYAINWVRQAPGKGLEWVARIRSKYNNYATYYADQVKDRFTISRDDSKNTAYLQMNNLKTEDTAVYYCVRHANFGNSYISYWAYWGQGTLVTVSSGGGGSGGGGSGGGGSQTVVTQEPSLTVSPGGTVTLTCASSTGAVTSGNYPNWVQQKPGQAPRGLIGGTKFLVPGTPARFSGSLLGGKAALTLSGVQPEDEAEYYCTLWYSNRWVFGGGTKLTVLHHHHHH
Sequence of DH17 anti-DLL3 trispecific protein (chain, as listed by the source): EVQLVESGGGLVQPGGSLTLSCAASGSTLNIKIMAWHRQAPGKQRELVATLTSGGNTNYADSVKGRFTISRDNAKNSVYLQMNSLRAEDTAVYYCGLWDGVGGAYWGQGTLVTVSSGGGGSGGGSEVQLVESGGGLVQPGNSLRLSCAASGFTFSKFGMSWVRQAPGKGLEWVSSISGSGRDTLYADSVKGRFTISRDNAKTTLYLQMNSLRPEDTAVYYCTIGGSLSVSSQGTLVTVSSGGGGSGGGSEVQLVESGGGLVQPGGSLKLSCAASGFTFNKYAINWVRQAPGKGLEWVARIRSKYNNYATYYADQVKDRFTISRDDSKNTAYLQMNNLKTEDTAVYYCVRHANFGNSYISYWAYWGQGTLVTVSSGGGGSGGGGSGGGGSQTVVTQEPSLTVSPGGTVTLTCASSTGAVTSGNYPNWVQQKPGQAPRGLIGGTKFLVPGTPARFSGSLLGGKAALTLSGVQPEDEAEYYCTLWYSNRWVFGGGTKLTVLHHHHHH
Sequence of DH45 anti-DLL3 trispecific protein (chain, as listed by the source): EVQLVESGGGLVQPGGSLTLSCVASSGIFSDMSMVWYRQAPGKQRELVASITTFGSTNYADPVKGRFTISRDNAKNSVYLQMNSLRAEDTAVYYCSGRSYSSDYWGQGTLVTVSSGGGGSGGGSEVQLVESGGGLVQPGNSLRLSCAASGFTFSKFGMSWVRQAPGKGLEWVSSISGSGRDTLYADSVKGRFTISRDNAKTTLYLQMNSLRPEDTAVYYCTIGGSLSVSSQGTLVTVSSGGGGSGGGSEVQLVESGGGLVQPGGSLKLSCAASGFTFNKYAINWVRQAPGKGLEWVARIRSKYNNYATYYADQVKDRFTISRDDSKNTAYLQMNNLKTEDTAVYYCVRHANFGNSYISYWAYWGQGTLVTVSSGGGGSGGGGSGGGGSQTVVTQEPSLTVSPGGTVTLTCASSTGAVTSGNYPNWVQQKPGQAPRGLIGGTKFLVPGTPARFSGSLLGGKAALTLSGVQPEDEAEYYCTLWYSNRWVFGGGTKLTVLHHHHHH
Sequence of DH94 anti-DLL3 trispecific protein (chain, as listed by the source): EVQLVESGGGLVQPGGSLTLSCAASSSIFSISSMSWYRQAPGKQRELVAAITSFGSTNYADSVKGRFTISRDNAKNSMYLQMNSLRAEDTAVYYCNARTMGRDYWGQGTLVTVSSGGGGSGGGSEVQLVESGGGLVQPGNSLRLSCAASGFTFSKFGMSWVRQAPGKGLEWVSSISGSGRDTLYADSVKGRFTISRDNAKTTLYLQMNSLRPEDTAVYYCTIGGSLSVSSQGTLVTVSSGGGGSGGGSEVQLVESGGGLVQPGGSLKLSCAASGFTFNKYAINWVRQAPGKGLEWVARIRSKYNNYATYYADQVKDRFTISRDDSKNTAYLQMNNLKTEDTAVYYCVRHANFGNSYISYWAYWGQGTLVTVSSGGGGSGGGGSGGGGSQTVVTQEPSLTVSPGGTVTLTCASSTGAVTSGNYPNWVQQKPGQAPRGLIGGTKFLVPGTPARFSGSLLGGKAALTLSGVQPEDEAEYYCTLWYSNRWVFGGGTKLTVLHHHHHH
Sequence of DH1 anti-DLL3 trispecific protein (chain, as listed by the source): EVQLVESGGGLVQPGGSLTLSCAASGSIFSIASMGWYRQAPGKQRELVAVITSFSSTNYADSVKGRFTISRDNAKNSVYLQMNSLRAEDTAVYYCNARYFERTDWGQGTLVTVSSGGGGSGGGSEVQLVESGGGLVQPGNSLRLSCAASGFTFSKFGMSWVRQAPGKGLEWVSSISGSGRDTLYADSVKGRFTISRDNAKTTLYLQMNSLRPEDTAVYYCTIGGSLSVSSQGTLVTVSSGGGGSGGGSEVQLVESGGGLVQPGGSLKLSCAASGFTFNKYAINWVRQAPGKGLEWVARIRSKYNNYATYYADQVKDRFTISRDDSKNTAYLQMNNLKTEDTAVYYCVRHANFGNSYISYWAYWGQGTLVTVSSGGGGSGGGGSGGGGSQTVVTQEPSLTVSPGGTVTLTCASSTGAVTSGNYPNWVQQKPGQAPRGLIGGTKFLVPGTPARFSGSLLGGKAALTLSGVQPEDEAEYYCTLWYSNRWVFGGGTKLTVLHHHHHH
Sequence of DH67 anti-DLL3 trispecific protein (chain, as listed by the source): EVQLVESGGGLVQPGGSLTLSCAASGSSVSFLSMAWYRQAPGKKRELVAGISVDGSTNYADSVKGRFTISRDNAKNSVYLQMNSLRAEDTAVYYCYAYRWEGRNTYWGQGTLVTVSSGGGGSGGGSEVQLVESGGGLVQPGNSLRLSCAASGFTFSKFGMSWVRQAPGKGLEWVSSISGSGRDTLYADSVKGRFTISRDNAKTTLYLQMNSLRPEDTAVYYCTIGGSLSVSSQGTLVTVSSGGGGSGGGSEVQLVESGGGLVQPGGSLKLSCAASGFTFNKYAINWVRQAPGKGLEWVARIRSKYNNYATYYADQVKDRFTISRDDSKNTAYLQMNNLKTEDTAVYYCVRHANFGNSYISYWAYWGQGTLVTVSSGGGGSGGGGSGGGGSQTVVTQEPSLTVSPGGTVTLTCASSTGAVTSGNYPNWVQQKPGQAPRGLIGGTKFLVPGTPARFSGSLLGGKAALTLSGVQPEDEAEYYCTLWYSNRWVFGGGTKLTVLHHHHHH
Sequence of DH80 anti-DLL3 trispecific protein (chain, as listed by the source): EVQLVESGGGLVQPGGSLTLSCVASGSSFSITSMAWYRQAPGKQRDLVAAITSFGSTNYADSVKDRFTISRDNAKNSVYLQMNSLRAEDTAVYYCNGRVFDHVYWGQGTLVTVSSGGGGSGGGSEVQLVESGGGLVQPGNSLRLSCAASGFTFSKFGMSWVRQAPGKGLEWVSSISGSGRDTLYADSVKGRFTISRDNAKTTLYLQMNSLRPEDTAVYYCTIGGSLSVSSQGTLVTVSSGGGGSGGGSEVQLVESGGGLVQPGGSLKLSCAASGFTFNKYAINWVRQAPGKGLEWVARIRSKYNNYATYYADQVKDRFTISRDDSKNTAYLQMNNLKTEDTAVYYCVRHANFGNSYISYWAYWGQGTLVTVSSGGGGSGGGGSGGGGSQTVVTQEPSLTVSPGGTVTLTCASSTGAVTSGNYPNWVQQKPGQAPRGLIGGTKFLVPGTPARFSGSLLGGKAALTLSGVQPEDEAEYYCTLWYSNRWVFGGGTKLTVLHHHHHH

B1: human DLL3 protein expressed as human IgG1-Fc fusion (Fc fusion)
chain: AGVFELQIHSFGPGPGPGAPRSPCSARLPCRLFFRVCLKPGLSEEAAESPCALGAALSARGPVYTEQPGAPAPDLPLPDGLLQVPFRDAWPGTFSFIIETWREELGDQIGGPAWSLLARVAGRRRLAAGGPWARDIQRAGAWELRFSYRARCEPPAVGTACTRLCRPRSAPSRCGPGLRPCAPLEDECEAPLVCRAGCSPEHGFCEQPGECRCLEGWTGPLCTVPVSTSSCLSPRGPSSATTGCLVPGPGPCDGNPCANGGSCSETPRSFECTCPRGFYGLRCEVSGVTCADGPCFNGGLCVGGADPDSAYICHCPPGFQGSNCEKRVDRCSLQPCRNGGLCLDLGHALRCRCRAGFAGPRCEHDLDDCAGRACANGGTCVEGGGAHRCSCALGFGGRDCRERADPCAARPCAHGGRCYAHFSGLVCACAPGYMGARCEFPVHPDGASALPAAPPGLRPGDPQRYL
notes: also called huDLL3; not shown: human IgG1 Fc
As to B1, the Kd in assay [1] came to 42 nM; in [2] it was 6.9 nM; in assay [3] it was 3.5 nM; in assay [4], 0.8 nM; in [5], 5.3 nM; in assay [6] it was 41.9 nM. The Kd in [7] was 4.7 nM; in assay [8], 1.2 nM; in [9], 3.3 nM; in assay [10], 3.9 nM; in assay [11], 15.2 nM; in assay [12], 0.5 nM. In addition, the Kd in assay [13] was found to be 16.2 nM; in [14], 9.9 nM; in assay [15] it was 1.3 nM; in assay [16], 6.8 nM; in assay [17], 5.1 nM; in [18] it was 11.9 nM. Further, the Kd was found to be 6.6 nM in assay [19]; 8.1 nM in assay [20]; 8.4 nM in assay [21]; 6.5 nM in [22]; 20.6 nM in assay [23]; 4.3 nM in assay [24]. The Kd came out at 2.1 nM in [25]; 10.6 nM in [26]; 5.6 nM in assay [27]; 2.6 nM in [28]; 7 nM in assay [29]; 17.4 nM in assay [30]. The Kd in assay [31] was 1.9 nM; in assay [32], 1 nM; in assay [33] it was 4.3 nM; in [34] it was 6.1 nM; in assay [35] it was 18 nM.

B2: human DLL3 (Example 6) (ligand)
chain: B1 chain
notes: also called huDLL3
The molecule B2 returned a Kd in assay [36] of 2.2 nM.

B3: biotinylated human DLL3 protein expressed as a human IgG1 fusion protein (Fc fusion, not shown: a dimerising Fc or GST)
chain: B1 chain
modifications: biotinylated
With B3, the Kd in assay [37] is 7.7 nM; in [38], 9.9 nM; in assay [39], 8.9 nM; in [40] it was 9 nM; in assay [41], 34 nM; in [42], 0.3 nM.

B4: cynomolgus monkey DLL3 protein expressed as human IgG1-Fc fusion (Fc fusion, Macaca fascicularis)
chain: AGVFELQIHSFGPGPGGAPRSPYSARGPCRLFFRVCLKPGLSEEAAESPCALGAALSARGPVYTEQPEAPAPDLPLPNGLLQVPFRDAWPGTFSLIIETWREELGDQIGGPAWSLLARVTRRRRLAAGGPWAGDIQRAGAWELRFSYRARCELPAVGTACTRLCRPRSASRCGPGLRPCAPLEDECEAPPVCRAGCSLEHGFCEQPGECRCLEGWTGPLCMVPVSTSSCLGLRGPSSTTTGCLVPGPGPCDGNPCANGGSCSETPGSFECTCPRGFYGLRCEVSGVTCADGPCFNGGLCVGGADPDSAYICHCPPGFQGSNCEKRVDRCSLQPCRNGGLCLDLGHALRCRCRAGFAGPRCEHDLNDCAGRACANGGTCVEGGGAHRCSCALGFGGRDCRERADPCAARPCAHGGRCYAHFSGLVCACAPGYMGARCEFPVHPDGVSALPAAPPGLRPGDPQRYP
notes: also called cyDLL3; not shown: human IgG1 Fc
Consider B4, for which the binding result in assay [2], in assay [6], in [7], in [14], in assay [15] and in assay [18] was “no binding (tested: 50 nM)” in each case. Further, the binding result in [19], in assay [27], in [29] and in assay [30] was “no binding (tested: 50 nM)” in each case. The dissociation constant Kd in [3] stood at 10.7 nM; in [4] it was 5.5 nM; in assay [5] it was 5.6 nM; in assay [8] it was 7 nM; in [9], 27.9 nM; in [10], 25 nM. For the same molecule, the Kd in [11] is 17.9 nM; in [12], 5.5 nM; in assay [13], 86.2 nM; in assay [16], 16.4 nM; in [17], 18.2 nM; in assay [20], 8 nM. The Kd in assay [21] was found to be 8.2 nM; in assay [22], 14.6 nM; in assay [23] it was 42.4 nM; in [24], 5.5 nM; in assay [25], 11.3 nM; in [26], 30.8 nM. Besides, the Kd in assay [28] came to 9.6 nM; in [31] it was 2.8 nM; in [32], 5.9 nM; in [33] it was 11.7 nM; in assay [34] it was 6.8 nM; in assay [35], 17.5 nM.

Usually Kd stands for a measure of binding affinity in units of concentration. A low value points to tighter binding.
